In patent US20200024330A1 one finds Median IC50 against viruses neutralized with an IC50 <50 µg/ml, IC50 neutralization and IC50 (µg/mL), pseudovirus neutralization data, which are given here for 4 molecules.

Common to all, as to assay: cell-based or functional assay
Test [1] addresses Env of the clade AE HIV-1 pseudoviruses of the cross-clade 162-pseudovirus panel (n = 10).
Test [2] has as its target HIV-1 JRCSF envelope glycoprotein (Env) (HIV-1) (UniProt P20871).
The target in test [3] is HIV-1 MGRM-A-010 envelope glycoprotein (Env) (HIV-1).
Test [4] addresses HIV-1 APV13 envelope glycoprotein (Env) (HIV-1).
The target of test [5] is HIV-1 APV17 envelope glycoprotein (Env) (HIV-1).
In test [6] the target is HIV-1 92RW020 envelope glycoprotein (Env) (HIV-1).
Test [7] deals with HIV-1 APV6 envelope glycoprotein (Env) (HIV-1).
Test [8] addresses HIV-1 MGRM-C-026 envelope glycoprotein (Env) (HIV-1).
Test [9] concerns the target HIV-1 JRFL envelope glycoprotein (Env) (HIV-1).
Test [10] addresses HIV-1 MGRM-C-028 envelope glycoprotein (Env) (HIV-1).
For test [11], the target named is HIV-1 93UG077 envelope glycoprotein (Env) (HIV-1).
In test [12] the target is HIV-1 94UG103 envelope glycoprotein (Env) (HIV-1).
Test [13] has as its target HIV-1 Env of isolate MGRM-AE-003 (HIV-1).
For test [14], the target named is HIV-1 Env of isolate 92UG037 (HIV-1).
Test [15] has as its target HIV-1 Env of isolate MGRM-A-007 (HIV-1).
Test [16] concerns the target HIV-1 Env of isolate MGRM-A-010 (HIV-1).
In test [17] the target is HIV-1 Env of isolate MGRM-A-011 (HIV-1).
The target of test [18] is HIV-1 Env of isolate MGRM-A-006 (HIV-1).
Test [19] concerns the target HIV-1 Env of isolate 92RW008 (HIV-1).
Test [20] deals with HIV-1 Env of isolate 92WR024 (HIV-1).
For test [21], the target named is HIV-1 Env of isolate MGRM-A-013 (HIV-1).
Test [22] concerns the target HIV-1 Env of isolate 92WR020 (HIV-1).
Test [23] deals with HIV-1 Env of isolate MGRM-A-001 (HIV-1).
Test [24] concerns the target HIV-1 Env of isolate 94UG103 (HIV-1).
Test [25] has as its target HIV-1 Env of isolate MGRM-A-003 (HIV-1).
Test [26] concerns the target HIV-1 Env of isolate 92WR021 (HIV-1).
The target of test [27] is HIV-1 Env of isolate MGRM-A-005 (HIV-1).
Test [28] deals with HIV-1 Env of isolate 92WR026 (HIV-1).
Test [29] deals with HIV-1 Env of isolate CMU02 (HIV-1).
The target in test [30] is HIV-1 Env of isolate MGRM-A-002 (HIV-1).
Test [31] deals with HIV-1 Env of isolate 92UG031 (HIV-1).
In test [32] the target is HIV-1 Env of isolate VLGCA1 (HIV-1).
In test [33] the target is HIV-1 Env of isolate MGRM-AE-002 (HIV-1).
In test [34] the target is HIV-1 Env of isolate 93WR029 (HIV-1).
For test [35], the target named is HIV-1 Env of isolate MGRM-A-014 (HIV-1).
In test [36] the target is HIV-1 Env of isolate 92WR009 (HIV-1).
Test [37] has as its target HIV-1 Env of isolate 94KE105 (HIV-1).

B1: PGT-131 (antibody, V domains shown)
VH: QVQLQESGPGLVKPSETLSLTCTVSGDSINTGHHYWGWVRQVPGKGPEWIAHIHYNTAVLHNPALKSRVTISIFTLKNLITLSLSNVTAADTAVYFCVRSGGDILYYIEWQKPHWFYPWGPGILVTVSS
VL: QSALTQPPSASGSLGQSLTISCSGTGSDIGSWNFVSWYQQFPGRAPNLIIFEVNRRRSGVPDRFSGSKSGNTASLTVSGLRSEDEAEYFCSSLSGRWDIVFGGGTKVTVL
B1 had a Median IC50 against viruses neutralized with an IC50 <50 µg/ml in test [1] of 0.08 µg/mL.

B2: PGT-130 (antibody, V domains shown)
VH: QVQLQESGPGLVKPAETLSLTCSVSGESINTGHYYWGWVRQVPGKGLEWIGHIHYTTAVLHNPSLKSRLTIKIYTLRNQITLRLSNVTAADTAVYHCVRSGGDILYYYEWQKPHWFSPWGPGIHVTVSS
VL: QSALTQPPSASGSLGQSVTISCNGTSSDIGGWNFVSWYQQFPGRAPRLIIFEVNKRPSGVPGRFSGSKSGNSASLTVSGLQSDDEGQYFCSSLFGRWDVVFGGGTKLTVL
On to B2, for which the IC50 neutralization in test [2] was 0.0089 µg/mL; in test [3] it was 0.0054 µg/mL; in [4] it was 0.0345 µg/mL; in [5] it was > 10 µg/mL; in [6], 0.014 µg/mL; in [7], > 10 µg/mL. Moreover, the IC50 neutralization in test [8] was 0.0173 µg/mL; in test [9], 0.0346 µg/mL; in [10] it was > 10 µg/mL; in test [11], > 10 µg/mL; in test [12], 0.635 µg/mL. Also, the Median IC50 against viruses neutralized with an IC50 <50 µg/ml in test [1] amounted to 0.17 µg/mL.

B3: PGT-125 (antibody, V domains shown)
VH: QSQLQESGPRLVEASETLSLTCNVSGESTGACTYFWGWVRQAPGKGLEWIGSLSHCQSFWGSGWTFHNPSLKSRLTISLDTPKNQVFLKLTSLTAADTATYYCARFDGEVLVYNHWPKPAWVDLWGRGIPVTVSS
VL: QSALTQPPSASGSPGQSITISCNGTATNFVSWYQQFPDKAPKLIIFGVDKRPPGVPDRFSGSRSGTTASLTVSRLQTDDEAVYYCGSLVGNWDVIFGGGTTLTVL
On to B3, for which the IC50 (µg/mL), pseudovirus neutralization was 0.092 µg/mL in test [13]; 0.005 µg/mL in [14]; > 50 µg/mL in test [15]; 0.004 µg/mL in test [16]; > 50 µg/mL in test [17]; > 50 µg/mL in [18]. For the same molecule, the IC50 (µg/mL), pseudovirus neutralization in test [19] came out at 0.004 µg/mL; in [20] it was 35.5 µg/mL; in [21], 0.014 µg/mL; in [22], 0.004 µg/mL; in test [23] it was 12.4 µg/mL; in test [24], 0.008 µg/mL. The IC50 (µg/mL), pseudovirus neutralization is > 50 µg/mL in [25]; 0.005 µg/mL in test [26]; > 50 µg/mL in [27]; 0.007 µg/mL in test [28]; > 50 µg/mL in test [29]; 0.013 µg/mL in test [30]. Moreover, the IC50 (µg/mL), pseudovirus neutralization in test [31] is > 50 µg/mL; in test [32], 0.078 µg/mL; in test [33], > 50 µg/mL; in test [34], > 50 µg/mL; in test [35], 13.9 µg/mL; in [36], 0.144 µg/mL. Besides, the IC50 (µg/mL), pseudovirus neutralization in test [37] came out at 0.004 µg/mL. Moreover, the IC50 neutralization is 0.006 µg/mL in [2]; 0.0055 µg/mL in [3]; 0.0128 µg/mL in [4]; 7.31 µg/mL in test [5]; 0.0028 µg/mL in test [6]; 0.0359 µg/mL in [7]. Moreover, the IC50 neutralization in test [8] worked out at 0.0106 µg/mL; in test [9], 0.0156 µg/mL; in test [10], 5.78 µg/mL; in test [11], 0.0262 µg/mL; in test [12], 0.0124 µg/mL. This molecule displayed a Median IC50 against viruses neutralized with an IC50 <50 µg/ml in test [1] of 0.03 µg/mL.

B4: PGT-127 (antibody, V domains shown)
VH: QPQLQESGPGLVEASETLSLTCTVSGDSTGRCNYFWGWVRQPPGKGLEWIGSLSHCRSYYNTDWTYHNPSLKSRLTISLDTPKNQVFLRLTSVTAADTATYYCARFGGEVLVYRDWPKPAWVDLWGRGTLVVTVS
VL: QSALTQPPSASGSPGQSITISCTGTSNNFVSWYQQYPGKAPKLVIYEVNKRPSGVPDRFSGSKSGSTASLTVSGLQADDEGVYYCSSLVGNWDVIFGGGTKLTVL
As for B4, the IC50 (µg/mL), pseudovirus neutralization in [13] is > 50 µg/mL; in test [14], 0.014 µg/mL; in [15], > 50 µg/mL; in [16], 0.017 µg/mL; in test [17] it was > 50 µg/mL; in test [18] it was > 50 µg/mL. In addition, the IC50 (µg/mL), pseudovirus neutralization in test [19] is 0.012 µg/mL; in test [20], > 50 µg/mL; in test [21] it was 0.029 µg/mL; in test [22] it was 0.01 µg/mL; in test [23], > 50 µg/mL; in test [24] it was 0.017 µg/mL. Besides, the IC50 (µg/mL), pseudovirus neutralization was > 50 µg/mL in test [25]; 0.011 µg/mL in [26]; > 50 µg/mL in test [27]; 0.024 µg/mL in [28]; > 50 µg/mL in test [29]; 9.42 µg/mL in test [30]. For the same molecule, the IC50 (µg/mL), pseudovirus neutralization in test [31] is > 50 µg/mL; in test [32], > 50 µg/mL; in [33] it was > 50 µg/mL; in [34], > 50 µg/mL; in test [35], 0.04 µg/mL; in test [36], > 50 µg/mL. Further, the IC50 (µg/mL), pseudovirus neutralization in test [37] is 0.023 µg/mL.
